Measured values published in PMC10661694, “Architecture and regulation of a GDNF-GFRα1 synaptic adhesion assembly” (Nature Communications, 2023).
Numbering of substitutions follows the chain as printed. Numbers in names are those of the source.

T1: full length, GPI-anchored rat GFRα1 (mGFRα1^FL; HA-rGFRα1^1-468) (rat) (UniProt Q62997)
T1 sequence (chain, GPI-anchor): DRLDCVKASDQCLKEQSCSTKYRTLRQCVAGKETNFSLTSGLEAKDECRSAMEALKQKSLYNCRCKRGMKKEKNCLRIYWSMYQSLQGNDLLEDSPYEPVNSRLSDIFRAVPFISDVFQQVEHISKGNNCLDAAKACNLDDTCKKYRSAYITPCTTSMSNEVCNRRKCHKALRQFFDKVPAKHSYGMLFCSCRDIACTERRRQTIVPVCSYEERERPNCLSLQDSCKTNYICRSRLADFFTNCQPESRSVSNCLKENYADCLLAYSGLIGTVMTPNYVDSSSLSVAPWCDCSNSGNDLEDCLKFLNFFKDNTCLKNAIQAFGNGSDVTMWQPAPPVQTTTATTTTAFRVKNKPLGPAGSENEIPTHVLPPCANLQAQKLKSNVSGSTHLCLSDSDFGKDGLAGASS

T2: human GDNF structured region, residues 110-211 (hGDNF^mat) (human, UniProt P39905 110-211)
T2 chain: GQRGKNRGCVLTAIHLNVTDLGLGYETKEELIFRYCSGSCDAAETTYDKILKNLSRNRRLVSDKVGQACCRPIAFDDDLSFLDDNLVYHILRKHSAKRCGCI

B1: rat GDNF (rGDNF) (ligand)
chain: SPDKQAAALPRRERNRQAAAASPENSRGKGRRGQRGKNRGCVLTAIHLNVTDLGLGYETKEELIFRYCSGSCEAAETMYDKILKNLSRSRRLTSDKVGQACCRPVAFDDDLSFLDDSLVYHILRKHSAKRCGCI
B2: human GFRα1 residues 150-424 (hGFRα1^D2-CT) (domain or fragment)
chain: KGNNCLDAAKACNLDDICKKYRSAYITPCTTSVSNDVCNRRKCHKALRQFFDKVPAKHSYGMLFCSCRDIACTERRRQTIVPVCSYEEREKPNCLNLQDSCKTNYICRSRLADFFTNCQPESRSVSSCLKENYADCLLAYSGLIGTVMTPNYIDSSSLSVAPWCDCSNSGNDLEECLKFLNFFKDNTCLKNAIQAFGNGSDVTVWQPAFPVQTTTATTTTALRVKNKPLGPAGSENEIPTHVLPPCANLQAQKLKSNVSGNTHLCISNGNYEKEG
B3: zebrafish GDNF mature structured region, residues 135-235 (zGDNF^mat) (ligand, UniProt Q98TU0 135-235, looked up)
chain: VKGQGRGCLLKEIHLNVTDLDLGYRTKEELIFRYCSGPCHDAETNYDKILNNLTHNKKLDKDTPSRTCCRPIAFDDDISFLDDSLEYHTLKKHSAKKCACV
notes: GDNF, zebrafish, mature structured region, residues 135-235; The co-expressed form is called untagged; the methods describe no separate untagged construct, so both are kept as one molecule; also called untagged zGDNF^mat; soluble zGDNF^mat; source: Expi293F, secreted; not shown: His6, N-terminal, cleaved
B4: zebrafish GFRα1 residues 144-368 (zGFRα1^D2-D3+) (domain or fragment, UniProt Q98TT9 144-368, looked up)
chain: EPALAKENNCLNAAKACNLNDTCKKYRSAYISPCTSRVSTAEVCNKRKCHKALRQFFDKVPPKHSYGMLYCSCPLGDQSACSERRRQTIVPACSYEDKERPNCLTLQVSCKTNYICRSRLADFFTNCQPEPLSLSGCLKENYADCLLSYSGLIGTVMTPNYLRSPKISVSPFCDCSSSGNSKEECDRFTEFFTDNACLRNAIQAFGNGTDVSVWHPMPPVQTTTS
notes: GFRα1a, zebrafish, residues 144-368 (D2-D3 and part of the C-tail, lacking D1); also called zGFRα1^144-368; source: Expi293F, secreted; purified (Ni-NTA, SEC) or co-expressed with zGDNF^mat and co-purified; not shown: His6, C-terminal, kept
B5: zebrafish GDNF residues 134-235 (mature form, zGDNF^mat), crystallised in complex with zGFRα1^D1-D3 (ligand, UniProt Q98TU0 134-235, looked up)
chain: RVKGQGRGCLLKEIHLNVTDLDLGYRTKEELIFRYCSGPCHDAETNYDKILNNLTHNKKLDKDTPSRTCCRPIAFDDDISFLDDSLEYHTLKKHSAKKCACV
modifications: N-linked glycan at the N-glycosylation site of all zGDNF protomers
notes: GDNF, zebrafish, residues 134-235 (mature form); the methods give 135-235 for zGDNF^mat; Covalent dimer
B6: hGFRα1^D1-CT-K251E (protein)
chain: DRLDCVKASDQCLKEQSCSTKYRTLRQCVAGKETNFSLASGLEAKDECRSAMEALKQKSLYNCRCKRGMKKEKNCLRIYWSMYQSLQGNDLLEDSPYEPVNSRLSDIFRVVPFISDVFQQVEHIPKGNNCLDAAKACNLDDICKKYRSAYITPCTTSVSNDVCNRRKCHKALRQFFDKVPAKHSYGMLFCSCRDIACTERRRQTIVPVCSYEEREKPNCLNLQDSCETNYICRSRLADFFTNCQPESRSVSSCLKENYADCLLAYSGLIGTVMTPNYIDSSSLSVAPWCDCSNSGNDLEECLKFLNFFKDNTCLKNAIQAFGNGSDVTVWQPAFPVQTTTATTTTALRVKNKPLGPAGSENEIPTHVLPPCANLQAQKLKSNVSGNTHLCISNGNYEKEG
B7: human GFRα1 residues 25-424 (hGFRα1^D1-CT) (domain or fragment)
chain: B6 chain with E227K
B8: hGFRα1^D1-CT-L287E (protein)
chain: B6 chain with E227K, L263E
B9: hGFRα1^D1-CT-K251E L287E (protein)
chain: B6 chain with L263E
B10: zebrafish GFRα1 residues 20-353 (zGFRα1^D1-D3, lacking the GPI-anchor); ordered portion in the crystal zGFRα1^D2-D3 (domain or fragment, UniProt Q98TT9 144-353, looked up)
chain: EPALAKENNCLNAAKACNLNDTCKKYRSAYISPCTSRVSTAEVCNKRKCHKALRQFFDKVPPKHSYGMLYCSCPLGDQSACSERRRQTIVPACSYEDKERPNCLTLQVSCKTNYICRSRLADFFTNCQPEPLSLSGCLKENYADCLLSYSGLIGTVMTPNYLRSPKISVSPFCDCSSSGNSKEECDRFTEFFTDNACLRNAIQAFGNGTD
modifications: N-linked glycans (8 resolved for the 10 zGFRα1 protomers)
notes: GFRα1a, zebrafish, residues 20-353; In the crystal only D2-D3 is present (D1 clipped)

Experiments:
[1] = target: T1, full length, GPI-anchored rat GFRα1 (mGFRα1^FL; HA-rGFRα1^1-468) (rat)
[2] = target: T2, human GDNF structured region, residues …; assay: SPR
[3] = target: B4; assay: native gel or EMSA; blue native PAGE (3-12% Bis-Tris) of Ni2+-NTA purified co-expressed zGDNF^mat-zGFRα1 samples, 2 mg/ml, 10 mM HEPES pH 7.5, 130 mM NaCl, 1 mM CaCl2; time points; conditions: both partners purified
[4] = target: the molecule itself; assay: negative-stain electron microscopy; zGDNF^mat-zGFRα1^D2-D3+ cross-linked with 0.1% glutaraldehyde, SEC (Superose 6 Increase) in 20 mM HEPES pH 7.5, 130 mM NaCl, ~700 kDa fraction imaged; reconstruction at 30 Å
[5] = target: the molecule itself; assay: crystal structure; zGDNF^mat-zGFRα1^D1-D3 complex at 2.5 mg/ml in 20 mM Tris pH 7.0, 100 mM NaCl, 1 mM CaCl2; sitting drop, 22 °C; D1 clipped during crystallisation; 2.65 Å, P2_1, ten copies in the asymmetric unit

Row | Kd [2] [nM] | Binder | other results
1 |  | B1 | HEK293 cell adhesion assay: proportion of cell clusters of mGFRα1^FL-expressing cells after rat GDNF (200 ng/ml) [1]: 5 fold
2 | 71 | B2 | 
3 |  | B3 | stoichiometry N [3]: 1 zGDNF^mat protomers per zGFRα1 (10:10)
4 |  | B4 | binding result [4]: binds
5 |  | B5 | stoichiometry N [5]: 2 protomers in each covalent dimer
6 | 48 | B6 | 
7 | 32 | B7 | 
8 | 33 | B8 | 
9 | 91 | B9 | 
10 |  | B10 | stoichiometry N [5]: 5 protomers in each ring
